Consider 1 molecule from PMC3098740 (Biochemistry, 2010).

In the assay the target is T1, Methyl-coenzyme M reductase (MCR) subunit α (Methanothermobacter marburgensis …, UniProt P11558 1-550).
T1 sequence (looked up): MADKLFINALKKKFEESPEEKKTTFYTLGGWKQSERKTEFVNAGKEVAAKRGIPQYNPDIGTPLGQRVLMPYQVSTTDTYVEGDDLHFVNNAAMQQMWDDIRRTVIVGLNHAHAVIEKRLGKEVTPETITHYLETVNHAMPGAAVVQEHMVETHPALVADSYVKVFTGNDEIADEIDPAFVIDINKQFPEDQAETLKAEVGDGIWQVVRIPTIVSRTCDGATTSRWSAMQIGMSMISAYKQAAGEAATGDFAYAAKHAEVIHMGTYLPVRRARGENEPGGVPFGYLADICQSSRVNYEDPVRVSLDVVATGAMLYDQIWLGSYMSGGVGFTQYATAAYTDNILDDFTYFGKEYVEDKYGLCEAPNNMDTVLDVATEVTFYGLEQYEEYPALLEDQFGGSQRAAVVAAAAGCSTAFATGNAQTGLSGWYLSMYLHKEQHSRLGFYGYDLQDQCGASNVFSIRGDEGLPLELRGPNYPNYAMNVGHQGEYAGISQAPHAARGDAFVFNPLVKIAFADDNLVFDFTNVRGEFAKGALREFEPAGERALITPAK
The experiment in a line: crystal structure.

B1: Methyl-coenzyme M reductase (MCR) subunit β (natural protein, UniProt P11560 1-443, looked up)
chain: MAKFEDKVDLYDDRGNLVEEQVPLEALSPLRNPAIKSIVQGIKRTVAVNLEGIENALKTAKVGGPACKIMGRELDLDIVGNAESIAAAAKEMIQVTEDDDTNVELLGGGKRALVQVPSARFDVAAEYSAAPLVTATAFVQAIINEFDVSMYDANMVKAAVLGRYPQSVEYMGANIATMLDIPQKLEGPGYALRNIMVNHVVAATLKNTLQAAALSTILEQTAMFEMGDAVGAFERMHLLGLAYQGMNADNLVFDLVKANGKEGTVGSVIADLVERALEDGVIKVEKELTDYKVYGTDDLAMWNAYAAAGLMAATMVNQGAARAAQGVSSTLLYYNDLIEFETGLPSVDFGKVEGTAVGFSFFSHSIYGGGGPGIFNGNHIVTRHSKGFAIPCVAAAMALDAGTQMFSPEATSGLIKEVFSQVDEFREPLKYVVEAAAEIKNEI
For B1, the binding result is on record as “binds”.
